Results on 4 substances are retold here after patent US20060134087A1, “ITI-D1 Kunitz domain mutants as hNE inhibitors” (Dyax Corp., priority 1988, published 2006).

Where two headings read alike, the source gives them in different places.

In series [1] the target is T1, hCG (Homo sapiens, UniProt P08311).
T1 sequence (P08311 21-255): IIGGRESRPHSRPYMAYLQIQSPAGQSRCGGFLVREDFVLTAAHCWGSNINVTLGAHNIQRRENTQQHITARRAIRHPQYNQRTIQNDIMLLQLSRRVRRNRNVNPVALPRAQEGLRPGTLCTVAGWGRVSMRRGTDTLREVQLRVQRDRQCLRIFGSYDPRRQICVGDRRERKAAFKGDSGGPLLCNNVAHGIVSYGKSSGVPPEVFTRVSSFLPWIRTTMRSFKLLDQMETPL
Conditions: cited from earlier work.

Series [2] deals with T2, Elastase (porcine pancreas) (Sus scrofa, UniProt P00772).
T2 construct: host or cells: porcine pancreas
T2 sequence (P00772 27-266): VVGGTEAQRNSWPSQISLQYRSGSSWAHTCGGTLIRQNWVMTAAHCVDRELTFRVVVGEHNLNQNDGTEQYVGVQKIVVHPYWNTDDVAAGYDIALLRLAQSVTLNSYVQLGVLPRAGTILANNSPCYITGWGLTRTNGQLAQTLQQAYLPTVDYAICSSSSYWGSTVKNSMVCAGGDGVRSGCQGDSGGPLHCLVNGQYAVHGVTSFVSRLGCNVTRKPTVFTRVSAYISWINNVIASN
As to conditions: BPTI P1 derivatives, cited from earlier work.

Series [3] addresses T3, Elastase (human leukocytes) (Homo sapiens, UniProt P08246).
T3 construct: host or cells: human leukocytes
T3 sequence (P08246 30-267): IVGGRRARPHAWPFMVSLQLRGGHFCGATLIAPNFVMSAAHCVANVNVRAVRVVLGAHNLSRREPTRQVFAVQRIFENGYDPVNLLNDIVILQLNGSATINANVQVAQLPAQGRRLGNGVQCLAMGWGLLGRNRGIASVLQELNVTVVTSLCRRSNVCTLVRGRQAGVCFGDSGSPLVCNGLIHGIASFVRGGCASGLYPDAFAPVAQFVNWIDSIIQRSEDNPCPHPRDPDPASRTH
Conditions: BPTI P1 derivatives; read-out: Dissociation constant; cited from earlier work.

For series [4], the target named is T4, Trypsin (bovine pancreas) (Bos taurus, UniProt P00760).
T4 construct: host or cells: bovine pancreas
T4 sequence (P00760 24-246): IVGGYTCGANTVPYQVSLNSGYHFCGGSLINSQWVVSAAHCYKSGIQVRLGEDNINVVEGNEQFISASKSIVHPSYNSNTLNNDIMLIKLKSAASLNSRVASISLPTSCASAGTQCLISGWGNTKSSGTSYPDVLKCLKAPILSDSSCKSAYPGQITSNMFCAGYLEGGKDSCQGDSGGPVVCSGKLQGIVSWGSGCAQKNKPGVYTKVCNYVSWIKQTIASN
As to conditions: BPTI P1 derivatives; read-out: Dissociation constant (symbol); cited from earlier work.

Series [5] deals with T5, Chymotrypsin (bovine pancreas) (Bos taurus, UniProt P00766).
T5 construct: host or cells: bovine pancreas
Conditions: BPTI P1 derivatives; read-out: Dissociation constant (symbol); cited from earlier work.

Series [6] deals with T6, hNE (Homo sapiens, UniProt P08246).
T6 sequence (P08246 30-267): T3 sequence (P08246 30-267)
Kind of series: Kinetic on-rate of inhibitors reacting with hNE (progressive inhibition). The format is biochemical. As to the method:
The kinetic on-rates for the inhibitors reacting with hNE (kon) were determined from measurements of progressive inhibition of substrate hydrolytic activity by hNE following addition of inhibitor. For these experiments, a known concentration of inhibitor was added to a solution of hNE (0.847 nM) and substrate (25 μM) in 2 ml of reaction buffer in a plastic fluorescence cuvette. The change in fluorescence was recorded continuously following addition of the inhibitor. […] The enzymatic rate at selected times following addition of the inhibitor was determined from the slope of the tangent to the fluorescence time course at that time.
The kinetic constant kon for EPI-HNE-2 reacting with hNE was determined as follows. EPI-HNE-2 at 1.3 nM was added to buffer containing 0.867 nM hNE (I:E=1.5:1) at time 0. Measured percent residual activity was recorded as a function of time after addition of inhibitor. A least-squares fit program was used to obtain the value of kon=4.0×10^6 M^−1s^−1.
The kinetic off rate, koff, is calculated from the measured values of Ki and kon as: […] The values from such measurements are included in Table 30. The EPI-HNE proteins are small, high affinity, fast acting inhibitors of hNE. B. Specificity.

The target in series [7] is T6, hNE. Kind of series: Temperature stability, residual inhibitory activity for hNE. The format is physicochemical. As to conditions: for Residual hNE Inhibitory Activity: 18 hours, pH 7.0, 1 μM protein. The method, then:
The stability of EPI-HNE proteins to temperatures in the range 0° C. to 95° C. was assessed by incubating the inhibitors for thirty minutes at various temperatures and determining residual inhibitory activity for hNE. In these experiments, protein concentrations were 1 μM in phosphate buffer at pH=7. As is shown in Table 40, the four inhibitors are quite temperature stable.
Proteins were incubated at the stated temperature for 18 hours in buffer at pH 7.0. In all cases protein concentrations were 1 μM. At the end of the incubation period, aliquots of the reactions were diluted and residual hNE-inhibition activity determined.

Series [8] has as its target T6, hNE. As to the kind of experiment: pH stability, residual hNE inhibitory activity. Conditions: 37° C., 18 hours; for Percent Residual hNE Inhibitory Activity: 1 μM protein. The format is physicochemical. The method, then:
The stability of the proteins to exposure to pH conditions in the range of pH 1 to pH 10 was assessed by maintaining the inhibitors in buffers of defined pH at 37° C. for 18 hours and determining the residual hNE inhibitory activity in the standard hNE-inhibition assay. Proteins were incubated at a concentration of 1 μM. The buffers shown in Table 4 were formulated as described (STOL90) and used in the pH ranges indicated: […]
Proteins were incubated at 37° C. for 18 hours in buffers of defined pH (see text). In all cases protein concentrations were 1 μM. At the end of the incubation period, aliquots of the reactions were diluted and residual hNE-inhibition activity determined.

In series [9] the target is T6, hNE. As to the kind of experiment: Resistance to oxidative inactivation by Chloramine-T, residual hNE-inhibition activity. The format is physicochemical. Conditions: 20 minutes at RT. As to the method:
At the end of the incubation period, the oxidation reactions were quenched by adding methionine to a final concentration of 4 mM. After a further 10 minute incubation, the quenched reactions were diluted and assayed for residual inhibitor activity in our standard hNE-inhibition assay.
Inhibitors were incubated in the presence of Chloramine-T at the molar ratios indicated for 20 minutes at RT. Oxidation reactions were quenched by adding methionine to a final concentration of 4 mM. Residual hNE-inhibition activity remaining in the quenched reactions is shown as a percentage of the activity observed with no added oxidant.

Where [10] appears, read: read-out: Dissociation constant.

In the case of “Bovine pancreatic trypsin inhibitor [BPTI]”, the “inhibition of Cathepsin-G” value in series [1] (SWAI88, ODOM90) is “lacks”. Also, the “binding of hCG” value in series [1] was “does not significantly bind hCG”. The Kd in series [2] (read-out: Dissociation constant (symbol)) was more than 3500 nM.
With valine, the Kd was 0.11 nM in [3], more than 3.5 µM in series [4], 57 nM in series [2] (setting [10]) and more than 3.5 µM in series [5].
With “EPI-HNE-1: BPTI-derived Kunitz domain, SEQ ID NO 007; K15I, R17F, I18F, I19P, R39M, A40G, K41N, R42G”, in series [6] ([hNE] = 8.47 × 10^−10 molar), the kon is recorded as 3.7 10^6/M/s. The koff in series [6] (calculated from koff = KD × kon) was 7.4 10^−6/s. For the same substance, the “Residual hNE Inhibitory Activity” value in series [7] (Temperature 0 ° C.) is 97; in series [7] (Temperature 23 ° C.), 100; in series [7] (Temperature 37 ° C.), 100; in series [7] (Temperature 45 ° C.), 103; in series [7] (Temperature 55 ° C.), 99; in [7] (Temperature 65 ° C.) it was 94. For the same substance, the figures for the “Residual hNE Inhibitory Activity” value in series [7] (Temperature 75 ° C.), in [7] (Temperature 85 ° C.) and in [7] (Temperature 95 ° C.) were 100, 106 and 64, respectively. The “temperature below which full inhibitory activity is maintained” value in [7] (thirty minutes, 1 μM, phosphate buffer pH=7) was “below 90 °C”. Besides, the “pH stability” value in series [8] (pH 1 to pH 10, 1 μM) is “stable at all pH values tested”. In addition, the “Percent Residual hNE Inhibitory Activity” value was found to be 102% in series [8] (Incubation pH 1.0); 100% in series [8] (Incubation pH 2.0); 101% in series [8] (Incubation pH 2.6); 100% in series [8] (Incubation pH 3.0); 98% in series [8] (Incubation pH 4.0); 100% in [8] (Incubation pH 5.0). The “Percent Residual hNE Inhibitory Activity” value in [8] (Incubation pH 6.0) amounted to 100%; in series [8] (Incubation pH 7.0) it was 93%; in series [8] (Incubation pH 8.0) it was 96%; in series [8] (Incubation pH 9.4) it was 100%; in series [8] (Incubation pH 10.0), 98%. Besides, the “Percent Residual hNE-Inhibitory Activity” value in [9] (Molar Ratio CHL-T:Inhibitor 0) was 100%; in series [9] (Molar Ratio CHL-T:Inhibitor 1.4) it was 98%; in series [9] (Molar Ratio CHL-T:Inhibitor 1.9) it was 102%; in series [9] (Molar Ratio CHL-T:Inhibitor 3.8), 94%; in [9] (Molar Ratio CHL-T:Inhibitor 9.5) it was 95%; in series [9] (Molar Ratio CHL-T:Inhibitor 19.), 92%. Further, the “Percent Residual hNE-Inhibitory Activity” value in series [9] (Molar Ratio CHL-T:Inhibitor .48) is listed as 102%; in [9] (Molar Ratio CHL-T:Inhibitor .95), 100%.
For the substance alanine, the Kd in series [3] is 2.5 nM; in [4], not below 3.5 µM; in series [2] (setting [10]) it was 28 nM; in series [5] it was more than 3.5 µM.
